Results reported in patent US20240024505.

How the values were obtained:
[1] = biological target: endogenous IGFBP-3 in human synovial fluid, P17936
[2] = biological target: recombinant IGFBP-3, P17936
Chain of recombinant IGFBP-3, P17936 (P17936 28-291): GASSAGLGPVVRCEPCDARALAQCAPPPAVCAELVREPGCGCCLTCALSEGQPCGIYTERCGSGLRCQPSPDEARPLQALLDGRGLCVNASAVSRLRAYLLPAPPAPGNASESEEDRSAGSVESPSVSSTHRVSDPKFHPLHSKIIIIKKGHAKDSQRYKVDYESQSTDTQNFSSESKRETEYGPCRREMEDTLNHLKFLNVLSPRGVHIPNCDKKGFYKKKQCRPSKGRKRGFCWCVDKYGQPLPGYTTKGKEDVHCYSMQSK

Chain of endogenous IGFBP-3 in human synovial fluid, P17936 (P17936 28-291): as above

B1: PAPPA2 from conditioned media (protein)
chain: PPEESNQNGGEGSYREAETFNSQVGLPILYFSGRRERLLLRPEVLAEIPREAFTVEAWVKPEGGQNNPAIIAGVFDNCSHTVSDKGWALGIRSGKDKGKRDARFFFSLCTDRVKKATILISHSRYQPGTWTHVAATYDGRHMALYVDGTQVASSLDQSGPLNSPFMASCRSLLLGGDSSEDGHYFRGHLGTLVFWSTALPQSHFQHSSQHSSGEEEATDLVLTASFEPVNTEWVPFRDEKYPRLEVLQGFEPEPEILSPLQPPLCGQTVCDNVELISQYNGYWPLRGEKVIRYQVVNICDDEGLNPIVSEEQIRLQHEALNEAFSRYNISWQLSVHQVHNSTLRHRVVLVNCEPSKIGNDHCDPECEHPLTGYDGGDCRLQGRCYSWNRRDGLCHVECNNMLNDFDDGDCCDPQVADVRKTCFDPDSPKRAYMSVKELKEALQLNSTHFLNIYFASSVREDLAGAATWPWDKDAVTHLGGIVLSPAYYGMPGHTDTMIHEVGHVLGLYHVFKGVSERESCNDPCKETVPSMETGDLCADTAPTPKSELCREPEPTSDTCGFTRFPGAPFTNYMSYTDDNCTDNFTPNQVARMHCYLDLVYQQWTESRKPTPIPIPPMVIGQTNKSLTIHWLPPISGVVYDRASGSLCGACTEDGTFRQYVHTASSRRVCDSSGYWTPEEAVGPPDVDQPCEPSLQAWSPEVHLYHMNMTVPCPTEGCSLELLFQHPVQADTLTLWVTSFFMESSQVLFDTEILLENKESVHLGPLDTFCDIPLTIKLHVDGKVSGVKVYTFDERIEIDAALLTSQPHSPLCSGCRPVRYQVLRDPPFASGLPVVVTHSHRKFTDVEVTPGQMYQYQVLAEAGGELGEASPPLNHIHGAPYCGDGKVSERLGEECDDGDLVSGDGCSKVCELEEGFNCVGEPSLCYMYEGDGICEPFERKTSIVDCGIYTPKGYLDQWATRAYSSHEDKKKCPVSLVTGEPHSLICTSYHPDLPNHRPLTGWFPCVASENETQDDRSEQPEGSLKKEDEVWLKVCFNRPGEARAIFIFLTTDGLVPGEHQQPTVTLYLTDVRGSNHSLGTYGLSCQHNPLIINVTHHQNVLFHHTTSVLLNFSSPRVGISAVALRTSSRIGLSAPSNCISEDEGQNHQGQSCIHRPCGKQDSCPSLLLDHADVVNCTSIGPGLMKCAITCQRGFALQASSGQYIRPMQKEILLTCSSGHWDQNVSCLPVDCGVPDPSLVNYANFSCSEGTKFLKRCSISCVPPAKLQGLSPWLTCLEDGLWSLPEVYCKLECDAPPIILNANLLLPHCLQDNHDVGTICKYECKPGYYVAESAEGKVRNKLLKIQCLEGGIWEQGSCIPVVCEPPPPVFEGMYECTNGFSLDSQCVLNCNQEREKLPILCTKEGLWTQEFKLCENLQGECPPPPSELNSVEYKCEQGYGIGAVCSPLCVIPPSDPVMLPENITADTLEHWMEPVKVQSIVCTGRRQWHPDPVLVHCIQSCEPFQADGWCDTINNRAYCHYDGGDCCSSTLSSKKVIPFAADCDLDECTCRDPKAEENQ
- protease activity: intact IGFBP-3 in synovial fluid by ELISA [1]: Treatment of healthy or diseased human synovial fluid with conditioned media containing PAPPA2 results in a significant decrease in intact IGFBP-3
- IGF-1 signaling (AP-1 driven bioluminescence) in the presence of IGFBP-3 [2]: Treatment with PAPPA2 allows for robust IGF-1 signaling in the modeled healthy and disease-state
- protease activity: intact IGFBP-3 by ELISA [2]: PAPPA2 from conditioned media efficiently cleaves IGFBP-3, as measured by an ELISA for intact IGFBP-3, with and without bound IGF-1
